26 sequences from the Immune Epitope Database (IEDB) can be followed below.

One assay has as its target HLA-B*44:02. Briefly: IEDB peptide-MHC binding, purified MHC/competitive/radioactivity; filed as Kd, often an IC50 or EC50 that approximates it; ≥ and ≤ were set here for values at or beyond the usual limits of such assays.
A further assay has as its target HLA-B*18:01. The assay is described as above.
The next assay deals with HLA-B*40:01. The description is as above.
In another assay the target is HLA-B*44:03. The assay is described as above.
In a further assay the target is HLA-B*45:01. The assay is described as above.
The target in a further assay is HLA-B*40:02. Described as above.
The next assay deals with HLA-A*30:01. The description is as above.
The target in a further assay is HLA-A*32:01. The assay is described as above.
Another assay concerns the target HLA-A*29:02. Described as above.
The target in another assay is HLA-A*30:02. Described as above.
The target of the next assay is HLA-A*26:01. Described as above.
Another assay concerns the target HLA-A*01:01. Described as above.
Another assay addresses HLA-A*23:01. The assay is described as above.
The target of a further assay is HLA-A*24:02. Described as above.
Another assay concerns the target HLA-B*35:01. Described as above.
The target of a further assay is HLA-B*53:01. The assay is described as above. To be noted: source organism: Dengue virus 4 Philippines/H241/1956.
The target in the next assay is HLA-A*68:01. The assay is described as above. Conditions: source organism: SARS coronavirus Tor2.
For the next assay, the target named is HLA-A*33:01. The description is as above. Conditions: source organism: SARS coronavirus Tor2.
For another assay, the target named is HLA-A*31:01. Briefly: IEDB peptide-MHC binding, purified MHC/direct/fluorescence; filed as Kd, often an IC50 or EC50 that approximates it; ≥ and ≤ were set here for values at or beyond the usual limits of such assays.
For another assay, the target named is HLA-B*58:01. Described as above. To be noted: source organism: Rickettsia conorii.
In another assay the target is HLA-A*02:01. The description is as above.
For a further assay, the target named is HLA-B*15:01. The description is as above.
Another assay concerns the target HLA-A*03:01. The description is as above.
The target of the next assay is HLA-A*69:01. Described as above. Conditions: source organism: Rickettsia conorii.
A further assay addresses HLA-A*11:01. Described as above. Conditions: source organism: Rickettsia conorii.
The mark [1] stands for this setting: source organism: Mammarenavirus machupoense.
[2] abbreviates: source organism: SARS coronavirus Tor2.
Setting [3] is: source organism: Mammarenavirus juninense.
Where [4] appears, read: source organism: Mammarenavirus brazilense.
The mark [5] stands for this setting: source organism: Mammarenavirus choriomeningitidis.
The mark [6] stands for this setting: source organism: Mammarenavirus lassaense.
[7] abbreviates: source organism: Mammarenavirus tacaribeense.
Where [8] appears, read: source organism: Mammarenavirus guanaritoense.
The mark [9] stands for this setting: source organism: Rickettsia conorii.
Where [10] appears, read: source organism: Lymphocytic choriomeningitis virus (strain Armstrong).
[11] abbreviates: source organism: Entamoeba histolytica HM-1:IMSS.
[12] abbreviates: source organism: Haemophilus influenzae.
Where [13] appears, read: source organism: Giardia lamblia ATCC 50803.

Bounds are passed on as bounds.

One may read the Kd as a measure of binding affinity in units of concentration. Turning to GDEALTGFL, the equilibrium dissociation constant (Kd) in the assay with HLA-B*44:02 (setting [1]) is 13.8 µM; in the assay with HLA-B*18:01 (setting [1]), 5.82 µM; with HLA-B*40:01 (setting [1]), 0.908 µM; with HLA-B*44:03 (setting [1]) it was at least 78.1 µM; in the assay with HLA-B*45:01 (setting [1]), at least 22.6 µM; in the assay with HLA-B*40:02 (setting [1]), 2.99 µM.
Take FEHIVYGDF: the Kd with HLA-B*44:02 (setting [2]) was 1.87 µM; with HLA-B*18:01 (setting [2]) it was 1.26 µM; in the assay with HLA-B*40:01 (setting [2]), 7.14 µM; in the assay with HLA-B*44:03 (setting [2]), 13.1 µM; in the assay with HLA-B*45:01 (setting [2]), at least 22.3 µM; with HLA-B*40:02 (setting [2]) it was 0.782 µM.
With ADVFHLYLQY, the Kd with HLA-B*44:02 (setting [2]) was 2.42 µM; in the assay with HLA-B*18:01 (setting [2]) it was at least 20.7 µM; with HLA-B*40:01 (setting [2]) it was 16.5 µM; with HLA-B*44:03 (setting [2]) it was 0.147 µM; with HLA-B*45:01 (setting [2]), 11.4 µM; with HLA-B*40:02 (setting [2]), at least 39.8 µM.
Consider SVIGTFVAEF, for which the equilibrium dissociation constant (Kd) with HLA-A*30:01 (setting [3]) is 2.42 µM; with HLA-A*32:01 (setting [3]), 0.195 µM; with HLA-A*29:02 (setting [3]) it was 0.169 µM; with HLA-A*30:02 (setting [3]) it was 0.11 µM; with HLA-A*26:01 (setting [3]), 0.00337 µM; with HLA-A*01:01 (setting [3]), 3.58 µM.
For the sequence GERSRCYSLY, the Kd with HLA-A*23:01 (setting [4]) is at least 70 µM; with HLA-A*24:02 (setting [4]), at least 70.3 µM; with HLA-A*30:01 (setting [4]), 5.43 µM; with HLA-A*32:01 (setting [4]), at least 69.9 µM; with HLA-A*29:02 (setting [4]), 14.4 µM; in the assay with HLA-A*30:02 (setting [4]), 0.718 µM. Moreover, the dissociation constant (Kd) in the assay with HLA-A*26:01 (setting [4]) is at least 69.7 µM; with HLA-A*01:01 (setting [4]), at least 26.7 µM.
As to AELLPDTTYL, the Kd was 0.561 µM with HLA-B*44:02 (setting [5]); at least 70.4 µM in the assay with HLA-B*18:01 (setting [5]); 9.78 µM with HLA-B*40:01 (setting [5]); 1.21 µM with HLA-B*44:03 (setting [5]); 17.3 µM with HLA-B*45:01 (setting [5]); 0.167 µM in the assay with HLA-B*40:02 (setting [5]).
As to FEIDKGIYQT, the Kd with HLA-B*44:02 (setting [2]) is at least 56.5 µM; with HLA-B*18:01 (setting [2]), 6.4 µM; in the assay with HLA-B*40:01 (setting [2]), 0.738 µM; with HLA-B*44:03 (setting [2]), 11.8 µM; in the assay with HLA-B*45:01 (setting [2]), 3.1 µM; with HLA-B*40:02 (setting [2]), 0.0473 µM.
In the case of FDAAVMGGF, the equilibrium dissociation constant (Kd) with HLA-B*44:02 (setting [6]) is at least 27.4 µM; with HLA-B*18:01 (setting [6]), at least 39.8 µM; with HLA-B*40:01 (setting [6]) it was at least 32.3 µM; with HLA-B*44:03 (setting [6]) it was 18.4 µM; with HLA-B*45:01 (setting [6]), at least 77.7 µM; in the assay with HLA-B*40:02 (setting [6]), 5.23 µM.
On to HYDQKLGSY, for which the dissociation constant (Kd) with HLA-A*30:01 (setting [7]) was 5.54 µM; with HLA-A*32:01 (setting [7]) it was 19.4 µM; in the assay with HLA-A*29:02 (setting [7]), at least 20.3 µM; with HLA-A*30:02 (setting [7]), 0.0898 µM; with HLA-A*26:01 (setting [7]), at least 36 µM; with HLA-A*01:01 (setting [7]), 11 µM.
Turning to IEELFYSYA, the Kd in the assay with HLA-B*44:02 (setting [2]) is 1.77 µM; with HLA-B*18:01 (setting [2]) it was 3.96 µM; with HLA-B*40:01 (setting [2]) it was 16 µM; in the assay with HLA-B*44:03 (setting [2]), 4.6 µM; with HLA-B*45:01 (setting [2]), 0.0495 µM; in the assay with HLA-B*40:02 (setting [2]), 3.06 µM.
HTASGEHSL: the Kd with HLA-A*30:01 (setting [4]) is 8.48 µM; with HLA-A*32:01 (setting [4]) it was 11.9 µM; in the assay with HLA-A*29:02 (setting [4]), at least 78.9 µM; with HLA-A*30:02 (setting [4]) it was 5.64 µM; with HLA-A*26:01 (setting [4]), 16.5 µM; in the assay with HLA-A*01:01 (setting [4]), at least 25.1 µM.
As for NPRLCTREEF, the values for the dissociation constant (Kd) with HLA-B*35:01 (source organism: Dengue virus 4 Philippines/H241/1956) and in the assay with HLA-B*53:01 were 0.892 µM and 0.197 µM, respectively.
With SEVAVLYQDV, the Kd came to 1.12 µM with HLA-B*44:02 (setting [2]); 3.11 µM in the assay with HLA-B*18:01 (setting [2]); 0.962 µM with HLA-B*40:01 (setting [2]); 0.104 µM with HLA-B*44:03 (setting [2]); 0.2 µM with HLA-B*45:01 (setting [2]); 0.134 µM in the assay with HLA-B*40:02 (setting [2]).
With AEVEWKFYDA, the Kd in the assay with HLA-B*44:02 (setting [2]) came to 0.079 µM; in the assay with HLA-B*18:01 (setting [2]), 1.54 µM; with HLA-B*40:01 (setting [2]), 8.44 µM; in the assay with HLA-B*44:03 (setting [2]) it was 0.0905 µM; with HLA-B*45:01 (setting [2]), 0.00554 µM; with HLA-B*40:02 (setting [2]), 4.69 µM.
For the sequence AVDPAKAYK, the dissociation constant (Kd) with HLA-A*68:01 stood at 0.553 µM; with HLA-A*33:01, 3.42 µM; in the assay with HLA-A*31:01 (source organism: SARS-CoV1), 0.293 µM.
AEIVDTVSA: the Kd was 1.93 µM in the assay with HLA-B*44:02 (setting [2]); 8.19 µM in the assay with HLA-B*18:01 (setting [2]); 0.396 µM with HLA-B*40:01 (setting [2]); 1.64 µM in the assay with HLA-B*44:03 (setting [2]); 0.00859 µM in the assay with HLA-B*45:01 (setting [2]); 0.0735 µM in the assay with HLA-B*40:02 (setting [2]).
Take LEREQIPTLI: the Kd with HLA-B*44:02 (setting [8]) was 19.6 µM; with HLA-B*18:01 (setting [8]) it was at least 57.5 µM; with HLA-B*40:01 (setting [8]), 2.75 µM; with HLA-B*44:03 (setting [8]), 12.8 µM; in the assay with HLA-B*45:01 (setting [8]), 9.71 µM; with HLA-B*40:02 (setting [8]), 0.559 µM.
For QECNNMHLST, the Kd with HLA-B*44:02 (setting [2]) is 5.61 µM; with HLA-B*18:01 (setting [2]), at least 70.5 µM; with HLA-B*40:01 (setting [2]) it was 15.2 µM; with HLA-B*44:03 (setting [2]), 7.12 µM; in the assay with HLA-B*45:01 (setting [2]) it was 0.636 µM; in the assay with HLA-B*40:02 (setting [2]) it was 0.595 µM.
Consider KEPQKPLVL, for which the Kd in the assay with HLA-B*44:02 (setting [1]) is 18 µM; in the assay with HLA-B*18:01 (setting [1]), at least 77.5 µM; in the assay with HLA-B*40:01 (setting [1]), 15.8 µM; in the assay with HLA-B*44:03 (setting [1]), at least 23.8 µM; in the assay with HLA-B*45:01 (setting [1]) it was at least 70.8 µM; with HLA-B*40:02 (setting [1]), 0.401 µM.
For the sequence QEAYYRARAG, the Kd with HLA-B*44:02 (setting [2]) was 0.954 µM; with HLA-B*18:01 (setting [2]), at least 36.1 µM; with HLA-B*40:01 (setting [2]), 12.7 µM; in the assay with HLA-B*44:03 (setting [2]) it was 0.411 µM; in the assay with HLA-B*45:01 (setting [2]), 0.607 µM; with HLA-B*40:02 (setting [2]), 0.963 µM.
In the case of KLNENIIRF, the dissociation constant (Kd) was 0.0686 µM with HLA-B*58:01; 1.28 µM with HLA-A*31:01 (setting [9]); 1.88 µM with HLA-A*02:01 (setting [9]); 0.151 µM with HLA-B*15:01 (setting [9]); 0.554 µM in the assay with HLA-A*03:01 (setting [9]); 4.75 µM with HLA-A*69:01. Besides, the dissociation constant (Kd) with HLA-A*11:01 turned out to be 5.91 µM.
As for YEDKVWDKY, the dissociation constant Kd in the assay with HLA-A*23:01 (setting [10]) was at least 77.7 µM; in the assay with HLA-A*24:02 (setting [10]), at least 77.5 µM; in the assay with HLA-A*30:01 (setting [10]), at least 32.2 µM; with HLA-A*32:01 (setting [10]), at least 77.8 µM; with HLA-A*29:02 (setting [10]), at least 29.9 µM; with HLA-A*30:02 (setting [10]), 2.71 µM. Besides, the dissociation constant (Kd) in the assay with HLA-A*26:01 (setting [10]) is at least 77.9 µM; with HLA-A*01:01 (setting [10]), 7.02 µM.
On to LAILFEEVM, for which the Kd with HLA-B*35:01 (source organism: Dengue virus 3 Martinique/1243/1999) stood at 0.0331 µM.
Regarding WYKVFVPRR, the dissociation constant Kd was 0.103 µM with HLA-A*31:01 (setting [11]) and at least 20 µM in the assay with HLA-A*03:01 (setting [11]).
In the case of RMGVKSQLL, the equilibrium dissociation constant (Kd) in the assay with HLA-A*31:01 (setting [12]) was 2.07 µM; in the assay with HLA-A*02:01 (setting [12]), 3.13 µM; with HLA-B*15:01 (setting [12]) it was 1.28 µM; with HLA-A*03:01 (setting [12]) it was 18 µM.
Consider MNQERRSLR, for which the figures for the dissociation constant Kd with HLA-A*31:01 (setting [13]) and with HLA-A*03:01 (setting [13]) were 0.119 µM and at least 20 µM, respectively.
